Biological target: CD19 on tumor cells (Raji, Raji-Luc, NALM6, Reh) (human) (UniProt P15391)
Assay: cell-based or functional assay

Sequence of CD19 on tumor cells (Raji, Raji-Luc, NALM6, Reh) (human) (P15391 20-556): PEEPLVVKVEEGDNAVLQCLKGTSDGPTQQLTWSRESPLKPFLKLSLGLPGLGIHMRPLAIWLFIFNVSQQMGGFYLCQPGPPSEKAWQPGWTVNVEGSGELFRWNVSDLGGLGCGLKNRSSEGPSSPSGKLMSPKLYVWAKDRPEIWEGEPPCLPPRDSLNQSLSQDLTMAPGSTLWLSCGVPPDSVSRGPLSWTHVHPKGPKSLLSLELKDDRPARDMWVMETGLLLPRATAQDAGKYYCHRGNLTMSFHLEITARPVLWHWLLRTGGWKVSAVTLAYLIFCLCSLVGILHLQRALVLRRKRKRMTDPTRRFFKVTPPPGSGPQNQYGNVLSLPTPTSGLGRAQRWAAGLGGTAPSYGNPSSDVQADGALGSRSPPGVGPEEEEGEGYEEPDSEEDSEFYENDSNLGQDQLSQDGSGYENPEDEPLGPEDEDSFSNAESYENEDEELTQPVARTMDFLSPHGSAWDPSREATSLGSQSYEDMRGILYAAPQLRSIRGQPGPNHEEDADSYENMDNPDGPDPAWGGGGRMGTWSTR

Blincyto (bispecific antibody) gave an EC50 of CIK-mediated killing of NALM6 cells of 0.0773 nM, an EC50 of CIK-mediated killing of Raji-LUC cells of 0.000595 nM and an EC50 of CIK-mediated killing of Raji-LUC cells, second row of 0.00565 nM. For the same substance, the EC50 of CIK-mediated killing of Reh cells was 0.0119 nM, the EC50 of PBMC-mediated killing of Raji-LUC cells was 0.00545 nM and the EC50 of PBMC-mediated killing of Raji-LUC cells, second row was 0.0212 nM. For the same substance, the EC50 of PBMC-mediated killing of Raji-LUC cells, third row was 0.0226 nM and the EC50 of activation of Jurkat T cells with NFAT RE reporter in the presence of Raji target cells was 2.71 nM.

Reference: US20210371526A1
